Reference: patent publication US6495376
Read-outs that look alike come from different tables or passages of the source.

What was measured:
[1] = molecular target: Cdc25 Peptide EQPLpTPVTDL; assay: fluorescence anisotropy, GST-WW-domain titrated on fluorescein-labeled peptide
[2] = molecular target: Pintide analogue WFYpSPFLE; assay: as above
[3] = molecular target: Pintide analogue WFYpSPFLE; assay: fluorescence anisotropy; low affinity site
[4] = molecular target: Pintide analogue WFYpSPFLE; assay: fluorescence anisotropy; high affinity site
[5] = molecular target: pT231 tau peptide (SEQ ID NO: 20); assay: ELISA on peptide
[6] = molecular target: Amyloid Precursor Protein Peptide … (pT-668); assay: ELISA on peptide
[7] = molecular target: pT231 tau peptide (SEQ ID NO: 20); assay: ELISA on peptide; remark: listed apart in the source
[8] = molecular target: Pintide analogue WFYpSPFLE; assay: fluorescence anisotropy, fluorescein labeled Pintide; high affinity site
[9] = molecular target: tau peptide … (pT-231), SEQ ID NO: 29; assay: ELISA on peptide
[10] = molecular target: proteins of labeled HeLa cell lysates pretreated with Ser phosphatases (CIP, PP1 and PP2A); assay: pulldown from labeled HeLa lysates pretreated with Ser phosphatases
[11] = molecular target: GST-WW-domain of Pin1 (UniProt Q13526)
[12] = molecular target: Pintide analogue WFYpSPFLE; assay: fluorescence anisotropy (Table 2 prints 1.0 for the WW-domain)

Nedd4 WW-domain-1, sequence (P46935 249-282): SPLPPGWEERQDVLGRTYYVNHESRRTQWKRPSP

GST-WW-domain of Pin1 (from UniProt Q13526 1-54)
Kd [1]: 2200 nM
Kd [2]: 1000 nM

GST-Pin1^S16A (from UniProt Q13526 1-163) (enzyme)
Kd [3]: 10500 nM
Kd [4]: 1200 nM

Pin1 (from UniProt Q13526 1-163) (enzyme)
Kd [5]: 25 nM
Binding (OD@405 nm) [6]: 1.81 OD@405 nm
Binding (OD@405 nm) [7]: 1.46 OD@405 nm
Kd [7]: 40 nM
Kd [3]: 11000 nM
Kd [4]: 1200 nM
Kd [8]: 1200 nM

Pin1^R14A (from UniProt Q13526 1-163) (enzyme)
Binding (OD@405 nm) [9]: 1.3 OD@405 nm
Kd [8]: 2000 nM

Pin1 PPIase domain (amino acids 47-163) (from UniProt Q13526 47-163) (enzyme)
Kd [3]: 15000 nM

GST-Pin1^Y23A (from UniProt P08515 1-218; Q13526 1-163) (enzyme)
Kd [3]: 13500 nM

Nedd4 WW-domain-2 (from UniProt P46935 405-438)
fold reduction of binding against untreated lysates [10]: 10 fold
Kd [1]: 20000 nM
Kd [2]: 10000 nM

Cdc25C, in vitro translated (35S-Met), phosphorylated by Xenopus mitotic extracts
dephosphorylation of the bound Cdc25C by calf intestine phosphatase (CIP) [11]: When mitotically phosphorylated Cdc25C was precipitated using GST beads containing Pin1 or its WW-domain, CIP failed to dephosphorylate Cdc25C.

GST-Pin1^S16E (from UniProt Q13526 1-163) (enzyme)
Kd [3]: 10500 nM

GST-Pin1^S18E (from UniProt Q13526 1-163) (enzyme)
Kd [3]: 12000 nM
Kd [4]: 1000 nM

Pin1^Y23F (from UniProt Q13526 1-163) (enzyme)
Kd [8]: 5000 nM

GST-Pin1 (from UniProt Q13526 1-163) (enzyme)
Kd [3]: 13000 nM
Kd [4]: 1200 nM

Pin1^S16A (from UniProt Q13526 1-163) (enzyme)
Kd [8]: 1200 nM

Nedd4 WW-domain-1 (from UniProt P46935 249-282)
fold reduction of binding against untreated lysates [10]: 10 fold

GST-Pin1^R14A (from UniProt Q13526 1-163) (enzyme)
Kd [3]: 13500 nM
Kd [4]: 2000 nM

GST-Pin1^W34A (from UniProt Q13526 1-163) (enzyme)
Kd [3]: 14000 nM

Pin1 WW-domain (amino acids 1-54) (from UniProt Q13526 1-54)
Kd [4]: 1000 nM
Kd [12]: 1200 nM
